Assay results from WO2006003179A2 (dated 2006).
One block for each molecule: values may come before it.

Legend:
[1] = target: recombinant soluble KIR2DL3 (entire extracellular domain, produced in E. coli) (human) (UniProt P43628); assay: Biacore, immobilized KIR2DL3; second Ab GL183 injected after first Ab 1-4F1
[2] = target: recombinant soluble KIR2DL3 (entire extracellular domain, produced in E. coli) (human) (UniProt P43628); assay: Biacore competition, immobilized KIR2DL3; first Ab gl183, competitor (second Ab) 1-6F1; set-up: concentration or dose not given beside the values
[3] = target: recombinant soluble KIR2DL3 (entire extracellular domain, produced in E. coli) (human) (UniProt P43628); assay: Biacore, immobilized KIR2DL3; second Ab GL183 injected after first Ab 1-6F1
[4] = target: recombinant soluble KIR2DL3 (entire extracellular domain, produced in E. coli) (human) (UniProt P43628); assay: Biacore competition, immobilized KIR2DL3; first Ab gl183, competitor (second Ab) 1-4F1; set-up: concentration or dose not given beside the values
[5] = target: recombinant soluble KIR2DL3 (entire extracellular domain, produced in E. coli) (human) (UniProt P43628); assay: Biacore, immobilized KIR2DL3; second Ab GL183 injected after first Ab 1-7F9
[6] = target: recombinant soluble KIR2DL3 (entire extracellular domain, produced in E. coli) (human) (UniProt P43628); assay: Biacore competition, immobilized KIR2DL3; first Ab gl183, competitor (second Ab) 1-7F9; set-up: concentration or dose not given beside the values
[7] = target: recombinant soluble KIR2DL3 (entire extracellular domain, produced in E. coli) (human) (UniProt P43628); assay: Biacore, immobilized KIR2DL3; second Ab GL183 alone (field of first Ab 1-6F1)
[8] = target: recombinant soluble KIR2DL3 (entire extracellular domain, produced in E. coli) (human) (UniProt P43628); assay: Biacore competition, immobilized KIR2DL3; first Ab gl183, competitor (second Ab) DF200; set-up: concentration or dose not given beside the values
[9] = target: recombinant soluble KIR2DL3 (entire extracellular domain, produced in E. coli) (human) (UniProt P43628); assay: Biacore competition, immobilized KIR2DL3; first Ab gl183, competitor (second Ab) Pan2D; set-up: concentration or dose not given beside the values
[10] = target: recombinant soluble KIR2DL3 (entire extracellular domain, produced in E. coli) (human) (UniProt P43628); assay: Biacore, immobilized KIR2DL3; second Ab GL183 alone (field of first Ab 1-7F9)
[11] = target: recombinant soluble KIR2DL3 (entire extracellular domain, produced in E. coli) (human) (UniProt P43628); assay: Biacore, immobilized KIR2DL3; second Ab GL183 alone (field of first Ab 1-4F1)
[12] = target: recombinant soluble KIR2DL3 (entire extracellular domain, produced in E. coli) (human) (UniProt P43628); assay: Biacore competition, immobilized KIR2DL3; first Ab DF200, competitor (second Ab) 1-6F5; set-up: concentration or dose not given beside the values
[13] = target: recombinant soluble KIR2DL3 (entire extracellular domain, produced in E. coli) (human) (UniProt P43628); assay: Biacore, immobilized KIR2DL3; second Ab DF200 alone (field of first Ab 1-6F5)
[14] = target: recombinant soluble KIR2DL3 (entire extracellular domain, produced in E. coli) (human) (UniProt P43628); assay: Biacore competition, immobilized KIR2DL3; first Ab DF200, competitor (second Ab) GL183; set-up: concentration or dose not given beside the values
[15] = target: recombinant soluble KIR2DL3 (entire extracellular domain, produced in E. coli) (human) (UniProt P43628); assay: Biacore SPR, KIR2DL3 immobilized on CM5, antibody as analyte (bivalent binding), Example 3
[16] = target: recombinant soluble KIR2DL3 (entire extracellular domain, produced in E. coli) (human) (UniProt P43628); assay: Biacore competition, immobilized KIR2DL3; first Ab DF200, competitor (second Ab) 1-4F1; set-up: concentration or dose not given beside the values
[17] = target: recombinant soluble KIR2DL3 (entire extracellular domain, produced in E. coli) (human) (UniProt P43628); assay: Biacore, immobilized KIR2DL3; second Ab DF200 injected after first Ab 1-7F9
[18] = target: recombinant soluble KIR2DL3 (entire extracellular domain, produced in E. coli) (human) (UniProt P43628); assay: Biacore, immobilized KIR2DL3; second Ab DF200 injected after first Ab 1-6F5
[19] = target: recombinant soluble KIR2DL3 (entire extracellular domain, produced in E. coli) (human) (UniProt P43628); assay: Biacore, immobilized KIR2DL3; second Ab DF200 alone (field of first Ab 1-4F1)
[20] = target: recombinant soluble KIR2DL3 (entire extracellular domain, produced in E. coli) (human) (UniProt P43628); assay: Biacore competition, immobilized KIR2DL3; first Ab DF200, competitor (second Ab) 1-6F1; set-up: concentration or dose not given beside the values
[21] = target: recombinant soluble KIR2DL3 (entire extracellular domain, produced in E. coli) (human) (UniProt P43628); assay: Biacore competition, immobilized KIR2DL3; first Ab DF200, competitor (second Ab) Pan2D; set-up: concentration or dose not given beside the values
[22] = target: recombinant soluble KIR2DL3 (entire extracellular domain, produced in E. coli) (human) (UniProt P43628); assay: Biacore, immobilized KIR2DL3; second Ab DF200 alone (field of first Ab 1-7F9)
[23] = target: recombinant soluble KIR2DL3 (entire extracellular domain, produced in E. coli) (human) (UniProt P43628); assay: Biacore, immobilized KIR2DL3; second Ab DF200 injected after first Ab 1-4F1
[24] = target: recombinant soluble KIR2DL3 (entire extracellular domain, produced in E. coli) (human) (UniProt P43628); assay: Biacore, immobilized KIR2DL3; second Ab DF200 alone (field of first Ab 1-6F1)
[25] = target: recombinant soluble KIR2DL3 (entire extracellular domain, produced in E. coli) (human) (UniProt P43628); assay: Biacore competition, immobilized KIR2DL3; first Ab DF200, competitor (second Ab) 1-7F9; set-up: concentration or dose not given beside the values
[26] = target: recombinant soluble KIR2DL1 (entire extracellular domain, produced in E. coli) (human) (UniProt P43626); assay: Biacore SPR, KIR2DL1 immobilized on CM5, antibody as analyte (bivalent binding), Example 3
[27] = target: recombinant soluble KIR2DL3 (entire extracellular domain, produced in E. coli) (human) (UniProt P43628); assay: Biacore, immobilized KIR2DL3; second Ab DF200 injected after first Ab 1-6F1
[28] = target: T1, KIR2DS3 on transfected cells (human, UniProt Q14952 22-304); assay: flow cytometry on cells transfected with KIR2DS3 (Figure 16)
T1 construct: whole, on cells

[29] = target: recombinant soluble KIR2DL3 (entire extracellular domain, produced in E. coli) (human) (UniProt P43628); assay: Biacore, immobilized KIR2DL3; second Ab Pan2D injected after first Ab 1-7F9
[30] = target: recombinant soluble KIR2DL3 (entire extracellular domain, produced in E. coli) (human) (UniProt P43628); assay: Biacore, immobilized KIR2DL3; second Ab Pan2D injected after first Ab 1-6F1
[31] = target: recombinant soluble KIR2DL3 (entire extracellular domain, produced in E. coli) (human) (UniProt P43628); assay: Biacore, immobilized KIR2DL3; second Ab Pan2D alone (field of first Ab 1-6F5)
[32] = target: recombinant soluble KIR2DL3 (entire extracellular domain, produced in E. coli) (human) (UniProt P43628); assay: Biacore, immobilized KIR2DL3; second Ab Pan2D alone (field of first Ab 1-4F1)
[33] = target: recombinant soluble KIR2DL3 (entire extracellular domain, produced in E. coli) (human) (UniProt P43628); assay: Biacore, immobilized KIR2DL3; second Ab Pan2D alone (field of first Ab 1-6F1)
[34] = target: recombinant soluble KIR2DL3 (entire extracellular domain, produced in E. coli) (human) (UniProt P43628); assay: Biacore, immobilized KIR2DL3; second Ab Pan2D injected after first Ab 1-4F1
[35] = target: recombinant soluble KIR2DL3 (entire extracellular domain, produced in E. coli) (human) (UniProt P43628); assay: Biacore, immobilized KIR2DL3; second Ab Pan2D alone (field of first Ab 1-7F9)

T1 sequence (Q14952 22-304): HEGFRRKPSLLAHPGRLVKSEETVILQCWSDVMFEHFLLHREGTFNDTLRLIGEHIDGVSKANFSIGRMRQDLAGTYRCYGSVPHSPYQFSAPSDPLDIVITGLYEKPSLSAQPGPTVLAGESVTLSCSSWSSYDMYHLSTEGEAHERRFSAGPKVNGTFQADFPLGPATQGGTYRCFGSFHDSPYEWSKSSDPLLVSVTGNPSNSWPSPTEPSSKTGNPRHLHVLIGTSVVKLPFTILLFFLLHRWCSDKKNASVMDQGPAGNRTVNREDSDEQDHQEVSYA

Molecule: murine monoclonal antibody DF200
- % inhibition of second antibody binding [12]: 4%
- RU of second antibody alone (RU1) [13]: 800 RU
- % inhibition of second antibody binding [14]: 20%
- Kd [15]: 2 nM
- % inhibition of second antibody binding [16]: 75%
- RU of second antibody after first antibody (RU2) [17]: 450 RU
- RU of second antibody after first antibody (RU2) [18]: 760 RU
- RU of second antibody alone (RU1) [19]: 1140 RU
- % inhibition of second antibody binding [20]: 16%
- % inhibition of second antibody binding [21]: 75%
- RU of second antibody alone (RU1) [22]: 770 RU
- RU of second antibody after first antibody (RU2) [23]: 210 RU
- RU of second antibody alone (RU1) [24]: 790 RU
- % inhibition of second antibody binding [25]: 62%
- Kd [26]: 11 nM
- RU of second antibody after first antibody (RU2) [27]: 760 RU

B1: human monoclonal antibody 1-7F9 (antibody, human IgG4, kappa, V domains shown)
VH: QVQLVQSGAEVKKPGSSVKVSCKASGGTFSFYAISWVRQAPGQGLEWMGGFIPIFGAANYAQKFQGRVTITADESTSTAYMELSSLRSDDTAVYYCARIPSGSYYYDYDMDVWGQGTTVTVSS
VL: EIVLTQSPVTLSLSPGERATLSCRASQSVSSYLAWYQQKPGQAPRLLIYDASNRATGIPARFSGSGSGTDFTLTISSLEPEDFAVYYCQQRSNWMYTFGQGTKLEIKR
notes: also called HuKIR 1-7F9; mAb 1-7F9
- binding result [28]: no binding (tested: 1 μg/ml)

More lines, now with the values ahead:

- RU of second antibody after first antibody (RU2) [1]: 330 RU
- % inhibition of second antibody binding [2]: 18%
- RU of second antibody after first antibody (RU2) [3]: 570 RU
- % inhibition of second antibody binding [4]: 75%
- RU of second antibody after first antibody (RU2) [5]: 200 RU
- % inhibition of second antibody binding [6]: 76%
- RU of second antibody alone (RU1) [7]: 620 RU
- % inhibition of second antibody binding [8]: 8%
- % inhibition of second antibody binding [9]: 40%
- RU of second antibody alone (RU1) [10]: 800 RU
- RU of second antibody alone (RU1) [11]: 1240 RU
Molecule: GL183 (antibody)

- RU of second antibody after first antibody (RU2) [29]: 830 RU
- RU of second antibody after first antibody (RU2) [30]: 1090 RU
- RU of second antibody alone (RU1) [31]: 990 RU
- RU of second antibody alone (RU1) [32]: 2400 RU
- binding result [28]: no binding (tested: 1 μg/ml)
- RU of second antibody alone (RU1) [33]: 990 RU
- RU of second antibody after first antibody (RU2) [34]: 890 RU
- RU of second antibody alone (RU1) [35]: 870 RU
B2: murine monoclonal antibody NKVSF1 (Pan2D) (antibody, V domains shown)
VH: EVQLQQSGTVLARPGASVKMSCKASGYTFTSYWMHWMKQRPGQGLEWIGTIYPGNSDTNYNQKFKGKAKLTAVTSTNTAYMELSSLTNEDSAVYYCSRPTTATRSSAMDYWGQGTSVTVSS
VL: QIVLTQSPASMSASLGERVTMTCTASSSVSSSYLYWYQQKPGSSPKLWIYSTSNLASGVPARFSGSGSGTSYSLTISSMEAEDAATYYCHQYHRSPPTFGGGTKLEIKR
notes: Mouse mAb, bought from Serotec, cat
